Legend:
[1] = molecular target: Ubiquitin carboxyl-terminal hydrolase isozyme L1 (human) (UniProt P09936); test: SPR
Cofilin-1 (human) = Cofilin-1 (human) (UniProt P23528); test: SPR
Chain of Cofilin-1 (human) (P23528 whole entry): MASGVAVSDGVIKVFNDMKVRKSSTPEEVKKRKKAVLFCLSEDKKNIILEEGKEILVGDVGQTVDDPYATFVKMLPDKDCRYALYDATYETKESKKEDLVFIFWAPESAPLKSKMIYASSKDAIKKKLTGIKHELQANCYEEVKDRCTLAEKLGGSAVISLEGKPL

Chain of Ubiquitin carboxyl-terminal hydrolase isozyme L1 (human) (P09936 whole entry): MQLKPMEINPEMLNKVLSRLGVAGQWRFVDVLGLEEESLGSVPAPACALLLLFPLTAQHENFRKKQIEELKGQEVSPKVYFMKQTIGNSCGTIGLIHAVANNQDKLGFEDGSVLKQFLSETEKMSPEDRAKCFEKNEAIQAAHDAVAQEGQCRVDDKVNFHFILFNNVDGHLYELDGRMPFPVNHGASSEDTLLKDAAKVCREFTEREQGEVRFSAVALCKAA

Substance: α-synuclein oligomer (from UniProt P37840 1-140) (natural protein)
- Kd [1]: 600 nM
- Kd (Cofilin-1 (human)): 290 nM

Reference: paper doi:10.1101/2022.10.06.511078
